The source of these data is IntAct's records for PubMed 19407142.

The labels stand for the following.
B1: Abscisic acid receptor PYR1 (Arabidopsis thaliana (Mouse-ear cress)), O49686 (parent)
chain: MPSELTPEERSELKNSIAEFHTYQLDPGSCSSLHAQRIHAPPELVWSIVRRFDKPQTYKHFIKSCSVEQNFEMRVGCTRDVIVISGLPANTSTERLDILDDERRVTGFSIIGGEHRLTNYKSVTTVHRFEKENRIWTVVLESYVVDMPEGNSEDDTRMFADTVVKLNLQKLATVAEAMARNSGDGSGSQVT
B2: Protein phosphatase 2C 56 (Arabidopsis thaliana (Mouse-ear cress)), P49597 (parent)
chain: MEEVSPAIAGPFRPFSETQMDFTGIRLGKGYCNNQYSNQDSENGDLMVSLPETSSCSVSGSHGSESRKVLISRINSPNLNMKESAAADIVVVDISAGDEINGSDITSEKKMISRTESRSLFEFKSVPLYGFTSICGRRPEMEDAVSTIPRFLQSSSGSMLDGRFDPQSAAHFFGVYDGHGGSQVANYCRERMHLALAEEIAKEKPMLCDGDTWLEKWKKALFNSFLRVDSEIESVAPETVGSTSVVAVVFPSHIFVANCGDSRAVLCRGKTALPLSVDHKPDREDEAARIEAAGGKVIQWNGARVFGVLAMSRSIGDRYLKPSIIPDPEVTAVKRVKEDDCLILASDGVWDVMTDEEACEMARKRILLWHKKNAVAGDASLLADERRKEGKDPAAMSAAEYLSKLAIQRGSKDNISVVVVDLKPRRKLKSKPLN
B3: Protein phosphatase 2C 77 (Arabidopsis thaliana (Mouse-ear cress)), O04719 (parent)
chain: MDEVSPAVAVPFRPFTDPHAGLRGYCNGESRVTLPESSCSGDGAMKDSSFEINTRQDSLTSSSSAMAGVDISAGDEINGSDEFDPRSMNQSEKKVLSRTESRSLFEFKCVPLYGVTSICGRRPEMEDSVSTIPRFLQVSSSSLLDGRVTNGFNPHLSAHFFGVYDGHGGSQVANYCRERMHLALTEEIVKEKPEFCDGDTWQEKWKKALFNSFMRVDSEIETVAHAPETVGSTSVVAVVFPTHIFVANCGDSRAVLCRGKTPLALSVDHKPDRDDEAARIEAAGGKVIRWNGARVFGVLAMSRSIGDRYLKPSVIPDPEVTSVRRVKEDDCLILASDGLWDVMTNEEVCDLARKRILLWHKKNAMAGEALLPAEKRGEGKDPAAMSAAEYLSKMALQKGSKDNISVVVVDLKGIRKFKSKSLN

One experiment covers variants of B1. The settings on record: with HAB1, Q9CAJ0.
HAB1, Q9CAJ0, sequence (Q9CAJ0 whole entry): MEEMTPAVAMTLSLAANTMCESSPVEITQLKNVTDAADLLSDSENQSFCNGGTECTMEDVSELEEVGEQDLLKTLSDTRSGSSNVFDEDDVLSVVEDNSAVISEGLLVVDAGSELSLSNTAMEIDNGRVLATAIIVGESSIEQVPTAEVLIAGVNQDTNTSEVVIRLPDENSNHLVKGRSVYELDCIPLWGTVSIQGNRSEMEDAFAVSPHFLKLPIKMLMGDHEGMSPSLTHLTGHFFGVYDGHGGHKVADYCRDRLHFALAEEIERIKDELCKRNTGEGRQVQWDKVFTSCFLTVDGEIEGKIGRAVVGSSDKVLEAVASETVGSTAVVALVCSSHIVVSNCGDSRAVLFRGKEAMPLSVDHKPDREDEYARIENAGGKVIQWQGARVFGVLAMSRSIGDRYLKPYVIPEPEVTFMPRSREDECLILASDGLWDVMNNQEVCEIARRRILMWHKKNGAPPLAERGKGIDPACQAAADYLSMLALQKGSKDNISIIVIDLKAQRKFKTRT
For MPSELTPEERSELKNSIAEFHTYQLDPGSCSSLHAQRIHAPPELVWSIVRRFDKPQTYKHFIKSCSVEQNFEMRVGCTRDVIVISGLPANTSTERLDILDDERRVTGFSIIGGEHRLTNYKSVTTVHRFEKENRIWTVVLESYVVDMPEGNLEDDTRMFADTVVKLNLQKLATVAEAMARNSGDGSGSQVT [S152L], the “effect of a mutation on the interaction” value was “disrupting interaction”.
Still for that read-out and setting: for MPSELTPEERSELKNSIAEFHTYQLDPGSCSSLHAQRIHAPPELVWSIVRRFDKPQTYKHFIKSCSVEQNFEMRVGCTRDVIVISGLSANTSTERLDILDDERRVTGFSIIGGEHRLTNYKSVTTVHRFEKENRIWTVVLESYVVDMPEGNSEDDTRMFADTVVKLNLQKLATVAEAMARNSGDGSGSQVT [P88S] the value was “disrupting interaction”.

Variants of B2 are the subject of a further experiment. The following applies: with pyr1_arath PYR1, O49686.
On to MEEVSPAIAGPFRPFSETQMDFTGIRLGKGYCNNQYSNQDSENGDLMVSLPETSSCSVSGSHGSESRKVLISRINSPNLNMKESAAADIVVVDISAGDEINGSDITSEKKMISRTESRSLFEFKSVPLYGFTSICGRRPEMEDAVSTIPRFLQSSSGSMLDGRFDPQSAAHFFGVYDGHDGSQVANYCRERMHLALAEEIAKEKPMLCDGDTWLEKWKKALFNSFLRVDSEIESVAPETVGSTSVVAVVFPSHIFVANCGDSRAVLCRGKTALPLSVDHKPDREDEAARIEAAGGKVIQWNGARVFGVLAMSRSIGDRYLKPSIIPDPEVTAVKRVKEDDCLILASDGVWDVMTDEEACEMARKRILLWHKKNAVAGDASLLADERRKEGKDPAAMSAAEYLSKLAIQRGSKDNISVVVVDLKPRRKLKSKPLN [G180D], for which the “effect of a mutation on the interaction” value is on record as “decreasing interaction”.

The variants in the next experiment derive from B3. The settings on record: with pyr1_arath PYR1, O49686.
As for MDEVSPAVAVPFRPFTDPHAGLRGYCNGESRVTLPESSCSGDGAMKDSSFEINTRQDSLTSSSSAMAGVDISAGDEINGSDEFDPRSMNQSEKKVLSRTESRSLFEFKCVPLYGVTSICGRRPEMEDSVSTIPRFLQVSSSSLLDGRVTNGFNPHLSAHFFGVYDGHDGSQVANYCRERMHLALTEEIVKEKPEFCDGDTWQEKWKKALFNSFMRVDSEIETVAHAPETVGSTSVVAVVFPTHIFVANCGDSRAVLCRGKTPLALSVDHKPDRDDEAARIEAAGGKVIRWNGARVFGVLAMSRSIGDRYLKPSVIPDPEVTSVRRVKEDDCLILASDGLWDVMTNEEVCDLARKRILLWHKKNAMAGEALLPAEKRGEGKDPAAMSAAEYLSKMALQKGSKDNISVVVVDLKGIRKFKSKSLN [G168D], the “effect of a mutation on the interaction” value is reported as “disrupting interaction”.
